{"source": "patent US20230022700A1", "target": "polymerized rabbit skeletal muscle actin (F-actin) (rabbit) (UniProt P68135)", "data": [{"substance": "Wolbachia wMel protein WD0830 (Wolbachia actin localizing effector 1, WalE1), purified from E. coli", "values": [{"measurement": "percent of total protein in the pellet when actin was present", "value": 24, "unit": "%"}]}]}
